Measured values published in patent US20170112792A1, “ENHANCED ATRA-RELATED COMPOUNDS DERIVED FROM STRUCTURE-ACTIVITY RELATIONSHIPS AND MODELING FOR INHIBITING PIN1” (Beth Israel Deaconess Medical Center, Inc., priority 2014, published 2017).

Target: pSer110 peptide (IRAKM residues 103-124 with Ser110 phosphorylated)
Assay: NMR titration, 1H-15N HSQC chemical shift changes

pSer110 peptide (IRAKM residues 103-124 with Ser110 phosphorylated), sequence (peptide, as listed by the source limits assumed): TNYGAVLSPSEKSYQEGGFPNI

Substance: 15N-labeled Pin1 WW domain (Pin1 residues 1-50) (from UniProt Q13526 1-50)
- Kd: 60.7 µM
